Test results from US8841270B2, “Use of inhibitors of Zdhhc2 activity for modulation of adipogenesis” (Sanofi, priority 2009, dated 2014).

Experiments:
[1] = tested on: C57BL/6J mice; assay: Rimonabant treatment of high fat diet fed mice, glucose tolerance; format: in vivo, mouse; conditions: HFD C57BL/6J mice, rimonabant 10 mg·kg−1·day−1 for one month
Description: C57BL/6J mice, which are obesity-prone (5), were fed for 6 months with a high fat diet (HFD).

[2] = tested on: Zdhhc2; assay: shRNA knockdown of Zdhhc2 expression, mRNA by RT-PCR; format: cell-based, mouse; conditions: shRNA in pSIREN plasmid, tested in 293T HEK cells; mRNA by RT-PCR (FIG. 3A)
Description: shRNAs were constructed using the RNAi-Ready pSIREN-RetroQ ZsGreen (Clontech). Target sequences for Zdhhc2 were designed by querying the Whitehead siRNA algorithm (http://jura.wi.mit.edu/bioc/siRNAext/) as well as the siRNA designer software from Clontech (http://bioinfo.clontech.com/rnaidesigner/); at least two sequences represented by both algorithms were subcloned into the pSIREN vectors (Clontech) using the EcoRI and BamH1 restriction sites. The following target sequences for Zdhhc2 were chosen SEQ ID NO. 5 and 6 as a negative control, we used the following siRNA sequence against luciferase: SEQ ID NO. 7.
The specificity of shRNAs was tested in 293T HEK cells co-transfected using calcium-Phosphate methods described in (14) with expression vectors containing Zdhhc2 cDNA and the RNAi-Ready pSIREN-RetroQ ZsGreen vector expressing either the shRNA against lucifeare (control shLUC) or Zdhhc2 (shZdhhc2). RT-PCR analysis was performed on cell RNA-extraction 24 h after transfection.
Total RNA was isolated from cultured cells using peqGOLD TriFast reagent according to the manufacturer's instructions (Axonlab). First strand cDNA was synthesized from 0.5 μg of total RNA using random primers and Superscript II (Invitrogen). […]
For the loss-of-function studies, shRNA specific for Zdhhc2 subcloned into a retroviral vector from Clontech were used (RNAi-Ready pSIREN-RetroQ ZsGreen or pSIREN). […]

[3] = tested on: 3T3-L1 cells; assay: Adipogenesis of retrovirally transduced 3T3-L1 cells (oil-red-O staining, aP2 mRNA by RT-PCR); format: cell-based, mouse
Method: 3T3-L1 cells were cultured in DMEM (Gibco) with 10% FBS (Gibco) at 5% CO2. After retroviral infection (see below), cells were allow to grow to confluence in either 100-mm or 60-mm dishes in DMEM with 10% FBS. Once confluence was reached, cells were exposed to differentiation medium containing dexamethasone (1 μM), insulin (5 μg/ml), and isobutylmethylxanthine ([…]) (DMI). After 2 days cells were maintained in medium containing insulin ([…]) until ready for harvest at 7 days.
After 7 to 10 days of differentiation, cells were washed once in PBS and fixed with formaldehyde (Formalde-fresh; Fisher) for 15 minutes. The staining solution was prepared by dissolving 0.5 g oil-red-0 in 100 ml of isopropanol; 60 ml of this solution was mixed with 40 ml of distilled water. After 1 hour at room temperature the staining solution was filtered and added to dishes for 4 hours. The staining solution was then removed and cells were washed twice with distilled water.
Retroviruses were constructed in the RNAi-Ready pSIREN-RetroQ ZsGreen (pSIREN Clontech). Viral constructs were transfected using calcium-phosphate method described in Jordan, M. et al. (2004) into 293 HEK packaging cells along with constructs encoding gag-pol and the VSV-G protein. […]

For `Cc1c(C(=O)NN2CCCCC2)nn(-c2ccc(Cl)cc2Cl)c1-c1ccc(Cl)cc1` [rimonabant], which glucose tolerance [1] is on record?
Its glucose tolerance is “normalized glucose tolerance”.

B1: shZdhhc2-2: shRNA specific for Zdhhc2 in pSIREN retroviral vector; target sequence probably SEQ ID NO. 6 (nucleic acid)
DNA: GATCCGTATGAGCAACCCTGCATTTCAAGAGAATGCAGGGTTGCTCATACTTTTTTACGCGTG
For B1, which “knockdown of Zdhhc2 expression” value [2] is on record?
Its value is 50%.

And the aP2 expression decreased ([3]; infected 3T3-L1 cells, day 9 of differentiation with DMI, RT-PCR)?
Its aP2 expression decreased is 60%.

B2: shLuc: negative control shRNA directed against luciferase, SEQ ID NO. 7 (nucleic acid)
chain: GATCCGTGCGTTGCTAGTACCAATTCAAGAGATTGGTACTAGCAACGCACTTTTTTACGCGTG
With B2 as the molecule, how does the “inhibition of adipogenesis in vitro” value ([3]; 3T3-L1 cells, oil-red-O staining and aP2 expression at day 9) read?
Its value is “no inhibition”.
